Reference: article PMC6061704 (Nucleic Acids Research, 2018)

Tests used:
[1] = target: T1, N-terminal His-tagged SisHjm (Hjm/Hel308a helicase from Sulfolobus islandicus) (Sulfolobus islandicus, UniProt F0NDL2 1-715); assay: SEC
T1 sequence (looked up): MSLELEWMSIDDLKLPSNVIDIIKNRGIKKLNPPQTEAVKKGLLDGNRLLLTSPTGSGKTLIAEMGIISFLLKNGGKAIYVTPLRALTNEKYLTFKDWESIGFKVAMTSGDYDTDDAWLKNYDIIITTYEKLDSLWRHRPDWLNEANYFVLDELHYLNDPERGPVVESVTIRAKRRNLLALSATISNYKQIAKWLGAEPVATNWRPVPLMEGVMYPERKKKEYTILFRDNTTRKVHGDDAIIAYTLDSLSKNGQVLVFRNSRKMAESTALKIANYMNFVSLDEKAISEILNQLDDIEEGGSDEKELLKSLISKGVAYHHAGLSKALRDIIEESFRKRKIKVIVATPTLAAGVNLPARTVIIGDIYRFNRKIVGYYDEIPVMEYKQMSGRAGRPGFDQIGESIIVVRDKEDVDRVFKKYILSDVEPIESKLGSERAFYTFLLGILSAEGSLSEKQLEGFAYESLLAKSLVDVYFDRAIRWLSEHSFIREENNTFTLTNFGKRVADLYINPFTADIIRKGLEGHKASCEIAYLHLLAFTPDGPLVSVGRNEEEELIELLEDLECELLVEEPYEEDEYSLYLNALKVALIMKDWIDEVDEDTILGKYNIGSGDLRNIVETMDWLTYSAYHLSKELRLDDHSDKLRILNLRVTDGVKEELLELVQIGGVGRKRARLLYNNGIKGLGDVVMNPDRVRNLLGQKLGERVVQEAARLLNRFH

SEC = target: the molecule itself; assay: SEC

B1: SisPINA (PIN domain-containing ATPase from Sulfolobus islandicus), recombinant, without tag (enzyme, UniProt F0NID4 1-505, looked up)
chain: MNDLMLDKSALLFGVSKYLEKGIITGNVLIHKSLLAELERESNDGLVSAEIALDEVKKLKDITERILVNFEIVGDDSKKGEANELSREYCLEKGCIIVTADETQKKICDAMGIQYNFLQPLKQGLSFESFFDDETMSLHIKEDTVPRAKKGKPGNWKFVNLSDKPMLSTDVRMIANEIINAVRLIKGSFVEIERRGSLIIQLGNYRVVITRPPLSDGWEITITRPVVRKRLEDYNLDERLIKRLEERAEGIIIAGAPGMGKTTFAQALAEYYMRLGKIVKTIESPRDMHLPPEITQYSKNYAEIGELHDILLLSRPDYTVYDEMRNDEDFKLYVDLRLAGVGMVGVVHATSPIDAIHRFVNRVDIGTIPNILDTIIFINSGNVSKVYTLEMTVKVPAGLKEADLARPVVEIKDLATGNTEYEIYVFGEQTMIVPVNRGITMSNMEFKISKIVNNIIPNATVKYEDGEYVIVIPKEEIGKYNRKLVQRLKRLEKKNNIKIKIKLSD
stoichiometry N [1]: ~1 Hjm monomer per PINA hexamer
stoichiometry N (SEC): 6
